Source: US20060252116A1 (published 2006)
Ends that are not written are not given here.

B1: svpFWVrms peptide (SEQ ID NO: 9) (peptide)
peptide: SVPFWVRMS
notes: Nine residues of the A strand of domain 1 of mature human ICAM-4, starting at S15; also called A strand peptide
B2: human ICAM-4Fc (Fc fusion)
chain: AQSPKGSPLAPSGTSVPFWVRMSPEFVAVQPGKSVQLNCSNSCPQPQNSSLRTPLRQGKTLRGPGWVSYQLLDVRAWSSLAHCLVTCAGKTRWATSRITAYKPPHSVILEPPVLKGRKYTLRCHVTQVFPVGYLVVTLRHGSRVIYSESLERFTGLDLANVTLTYEFAAGPRDFWQPVICHARLNLDGLVVRNSSAPITLMLAWSPAPTA
notes: Expressed in COS-7 cells, purified on protein A; also called Fc fusion ICAM-4 protein; wild-type ICAM-4Fc; not shown: Fc part from the pIg vector
B3: rqgktlrgp peptide (SEQ ID NO: 13) (peptide)
peptide: RQGKTLRGP
notes: Control peptide; nine residues of the D strand of domain 1 of mature human ICAM-4, starting at R56; also called D strand peptide
B4: tRwATSRit peptide (SEQ ID NO: 10) (peptide)
peptide: TRWATSRIT
modifications: not fully specified (residues 1, 3, 8, 9)
notes: Nine residues of the G strand of domain 1 of mature human ICAM-4, starting at T91; also called G strand peptide
B5: aWssLahcl peptide (SEQ ID NO: 11) (peptide)
peptide: AWSSLAHCL
notes: Nine residues of the F strand of domain 1 of mature human ICAM-4, starting at A76; also called F strand peptide

What was measured:
[1] = target: T1, αv integrins (as found on HT1080 cells) (UniProt P06756 31-1048); test: HT1080 cell adhesion to coated murine ICAM-4Fc (5 ug/ml), peptide 500 uM; competitor murine ICAM-4Fc
T1 construct: whole, on cells; also called αv integrin ligand
Method: FIG. 14. […] Murine ICAM-4Fc was coated at a concentration of 5 μg/ml, peptides were used at 500 μM final concentration for each peptide, and each data point is the mean of two independent assays.
(§1) Cell adhesion assays were performed as described in Spring et al. 2001 (supra). Immulon4 96 well plates (Dynex Technologies, Billingshurst, United Kingdom) were coated with 1 μg/well goat-antihuman-Fc (Sigma, Poole, United Kingdom) for 24 hours at 4° C., washed three times with PBS and coated with an Fc fusion ICAM-4 protein for 18 hours at 4° C. before blocking with 0.4% BSA PBS for 2 hours at 22° C. Cells were labelled with 10 μg/ml 2′,7′-bis-(2-carboxyethyl)-5-(and-6-) carboxyfluorescein acetoxymethyl ester in assay buffer (IMEM, 2 mM EGTA, 10 μg/ml human ivIgG) for 15 minutes at 37° C. HT1080 cells were activated with 80 μM phorbol myristate acetate prior to both cells being washed with assay buffer containing 2 mM Mn²⁺. Cells, at 5×10⁴ cells per well, were added to the ICAM-4Fc-coated plates for 30 minutes at 37° C., prior to being given repeated washes in assay buffer and read on a fluorescence microplate reader (excitation 485 nm, emission 530 nm). The percentage of bound cells was calculated after each wash. Peptide inhibition was performed by incubating the cells with 500 μM peptide at 0° C. for 15 minutes ahead of their addition, still in the presence of 500 μM peptide to the ICAM-4Fc coated plates.

[2] = target: T1, αv integrins (as found on HT1080 cells); test: HT1080 cell adhesion to coated human ICAM-4Fc (5 ug/ml); value is for the MIXTURE with control peptide SEQ ID NO: 13, each peptide 750 uM
Method: (§2) Human ICAM-4Fc was coated at a concentration of 5 μg/ml, peptides were used at 750 μM final concentration for each peptide, and each data point is the mean of two independent assays.
as §1, with “plates. In peptide inhibition studies the appropriate ICAM-4Fc coating concentration for each cell line was pre-determined by titration of ICAM-4Fc and the lowest concentration at which maximal binding was achieved was used to coat the plates” for “plates.”

[3] = target: T1, αv integrins (as found on HT1080 cells); test: HT1080 cell adhesion to coated human ICAM-4Fc (5 ug/ml); value is for the MIXTURE of SEQ ID NO: 9, 10 and 11, each peptide 750 uM
Method: as §2
as §1, with “plates. In peptide inhibition studies the appropriate ICAM-4Fc coating concentration for each cell line was pre-determined by titration of ICAM-4Fc and the lowest concentration at which maximal binding was achieved was used to coat the plates” for “plates.”

[4] = target: T1, αv integrins (as found on HT1080 cells); test: HT1080 cell adhesion to coated human ICAM-4Fc (7.5 ug/ml), peptide 500 uM; competitor human ICAM-4Fc
Method: FIG. 10. […] Human ICAM-4Fc was coated at a concentration of 7.5 μg/ml, peptides were used at 500 μM final concentration for each peptide, and each data point is the mean of three independent assays.
as §1

[5] = target: T1, αv integrins (as found on HT1080 cells); test: HT1080 cell adhesion to coated human ICAM-4Fc (5 ug/ml), peptide 750 uM; competitor human ICAM-4Fc
Method: as §2
as §1, with “plates. In peptide inhibition studies the appropriate ICAM-4Fc coating concentration for each cell line was pre-determined by titration of ICAM-4Fc and the lowest concentration at which maximal binding was achieved was used to coat the plates” for “plates.”

αMβ2 integrin = αMβ2 integrin (UniProt P11215 17-1152; P05107 23-769); test: neutrophil adhesion to coated ICAM-4Fc with blocking integrin antibodies
Method: (§3) Utilising blocking β integrin subunit antibodies and our blocking ICAM-4 peptides (i.e., SEQ ID NOs: 9, 10, 11 and 13—see Example 1) in a microplate neutrophil adhesion assay. Neutrophils were purified from buffy coats (obtained from the National Blood Service, Bristol, UK) as described in Henderson et al. (1987, Biochem. J. 246: 325-329). Cell adhesion assays were performed as described in Example 1 above. […] Neutrophils were labelled with 10 μg/ml 2′,7′-bis-(2-carboxyethyl)-5-(and-6-)carboxyfluorescein acetoxymethyl ester (Sigma, Poole, UK) in assay buffer (Iscoves modified Eagle medium, 2 mM EGTA, 0.1% BSA for 15 minutes at 37° C. Neutrophils were washed with assay buffer containing 2 mM Mn²⁺. Neutrophils, at 5×10⁵ cells per well, were added to the ICAM-4Fc-coated plates for 10 minutes at 37° C., prior to being cyclically read on a fluorescence microplate reader (excitation 485 nm, emission 530 nm) and washed in assay buffer. The percentage of bound cells was calculated after each wash. Peptide and antibody inhibition was performed by incubating the cells with 500 μM peptide and 25 μg/ml antibody at 0° C. for 15 minutes before their addition to the ICAM-4 Fc coated plates. […]

αLβ2 integrin = target: T2, αLβ2 integrin (UniProt P20701 26-1170; P05107 23-769); test: as above
T2 construct: whole, on cells; also called LFA-1; β2 integrins
Method: as §3

T1 sequence (P06756 31-1048): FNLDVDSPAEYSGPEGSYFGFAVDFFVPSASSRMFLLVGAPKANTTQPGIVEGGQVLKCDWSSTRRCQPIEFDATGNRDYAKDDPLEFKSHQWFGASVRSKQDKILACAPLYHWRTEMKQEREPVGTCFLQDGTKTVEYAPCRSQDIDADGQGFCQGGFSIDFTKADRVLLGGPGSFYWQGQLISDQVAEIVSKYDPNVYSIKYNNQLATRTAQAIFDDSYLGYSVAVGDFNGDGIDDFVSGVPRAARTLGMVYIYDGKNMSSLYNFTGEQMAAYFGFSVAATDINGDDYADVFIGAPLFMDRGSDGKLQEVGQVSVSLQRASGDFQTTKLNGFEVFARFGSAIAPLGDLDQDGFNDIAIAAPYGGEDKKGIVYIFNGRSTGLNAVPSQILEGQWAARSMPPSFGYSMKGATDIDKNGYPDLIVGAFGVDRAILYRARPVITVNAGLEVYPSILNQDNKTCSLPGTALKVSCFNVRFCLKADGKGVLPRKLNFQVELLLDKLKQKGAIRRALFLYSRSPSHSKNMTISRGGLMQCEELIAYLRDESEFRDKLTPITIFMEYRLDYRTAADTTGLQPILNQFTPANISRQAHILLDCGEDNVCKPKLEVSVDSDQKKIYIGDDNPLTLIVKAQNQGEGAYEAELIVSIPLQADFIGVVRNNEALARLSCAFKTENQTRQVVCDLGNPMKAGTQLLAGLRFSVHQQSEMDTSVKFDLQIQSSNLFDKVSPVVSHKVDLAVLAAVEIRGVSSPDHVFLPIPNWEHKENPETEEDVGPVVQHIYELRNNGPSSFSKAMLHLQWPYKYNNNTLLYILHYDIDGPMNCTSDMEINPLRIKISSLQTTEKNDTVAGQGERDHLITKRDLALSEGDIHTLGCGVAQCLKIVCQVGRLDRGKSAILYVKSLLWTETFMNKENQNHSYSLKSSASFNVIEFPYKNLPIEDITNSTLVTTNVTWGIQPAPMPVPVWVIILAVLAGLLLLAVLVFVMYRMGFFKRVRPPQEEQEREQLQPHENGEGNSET

Binder	input cells bound as % of binding to murine ICAM-4Fc in the absence of peptides [1] [%]	input cells bound as % of binding to ICAM-4Fc in the absence of peptides [2] [%]	input cells bound as % of binding to ICAM-4Fc in the absence of peptides [3] [%]	input cells bound as % of binding to ICAM-4Fc in the absence of peptides [4] [%]	input cells bound as % of binding to ICAM-4Fc in the absence of peptides [5] [%]	binding result (αMβ2 integrin)	binding result (αLβ2 integrin)
B1	60	40	52	46	41	–	–
B2	–	–	–	–	–	binds	binds
B3	92	–	–	97	96	–	–
B4	80	39	52	60	42	–	–
B5	–	64	52	–	71	–	–
